Settings in all cases: source organism: Homo sapiens
One assay has as its target HLA-A*31:01. As to the kind of experiment: IEDB peptide-MHC binding, purified MHC/competitive/radioactivity; filed as Kd, often an IC50 or EC50 that approximates it; ≥ and ≤ were set here for values at or beyond the usual limits of such assays.
The target of another assay is HLA-A*68:01. The description is as above.
A further assay concerns the target HLA-A*33:01. The assay is described as above.
The next assay deals with HLA-A*11:01. As to the kind of experiment: IEDB peptide-MHC binding, purified MHC/competitive/radioactivity; ≥ and ≤ were set here for values at or beyond the usual limits of such assays.
In a further assay the target is HLA-A*03:01. Described as above.

The term Kd denotes a measure of binding affinity in units of concentration. Usually IC50 stands for the point on the concentration scale where inhibition reaches its midpoint.

Bounds are passed on as bounds.

Turning to ALNFPGSQK, the Kd with HLA-A*31:01, with HLA-A*68:01 and with HLA-A*33:01 was ≥ 10000 nM throughout. Moreover, the concentration for half-maximal inhibition (IC50) with HLA-A*11:01 amounted to 4.6 nM; with HLA-A*03:01 it was 8.5 nM.

IALNFPGSQK: the Kd with HLA-A*31:01 is ≥ 10000 nM; with HLA-A*68:01, 4700 nM; in the assay with HLA-A*33:01, ≥ 10000 nM. Besides, the IC50 was 316 nM with HLA-A*11:01 and 36.7 nM in the assay with HLA-A*03:01.

LIYRRRLMK: the half-maximal inhibitory concentration (IC50) in the assay with HLA-A*03:01 was found to be 5.5 nM.

QLVLHQILK: the IC50 with HLA-A*03:01 was determined as 52.4 nM.

Take SLIYRRRLMK: the IC50 with HLA-A*03:01 amounted to 39.3 nM.

The values above are taken from the Immune Epitope Database (IEDB).
